Results taken from paper PMC8299219 (Cell, 2021).
Residue numbers refer to the chain shown, from its start.

B1: C89A5 (antibody, V domains shown)
VH: QVQLVESGGGVVQPGRSLRLPCAASGFSFSGYAMHWVRQAPDKGLEWMAVISFDGSTKTYADSVRGRFTISRDNSKNTLYLQIHTLRTEDTAVYYCARGGGGGDGAFDNWGGGTMVTVSS
VL: DVVMTQSPLSLPVTLGQPASISCRSSQSLVYSDGNTYLIWFQQRPGQSPRRLIYKVSNRDSGVPDRFSGSGSGTDFTLKISRVEADDVGVYYCMQTTHWPYTFGQGTKLEIK
B2: C83A5 (antibody, V domains shown)
VH: QVQLVESGGGVVQPGRSLRLSCAASRFTFSSYGMHWVRQAPGKGLEWVAVIWFDGTNKYYADSVKGRFTISRDNSKNTLYLQMNSLRVEDTAVYYCARDGAYYDRSAYYYRLKFYFDFWGQGTLVTVSS
VL: SYELTQPPSVSVSPGQTARITCSGDALPNQYVYWYHQKPGQAPVLVIYKDSERPSGIPERFSGSSSGTTVTLTISGVQAEDEADYYCQSADSSGNIGVFGGGTKLTVL
B3: C18C8 (antibody, V domains shown)
VH: EVQLVESGGGLVQPGRSLRLSCTTSGFTFGDYAMSWVRQAPGKGLEWVGFIRSKAYGGTTEYAASVKGRFTISRDDSKSIAYLQMNSLKTEDTAVYCCTRGLKVEPYYFDYWGQGTLVTVSS
VL: not shown
B4: C15C12 (antibody, V domains shown)
VH: EVQLLESGGGLVQPGGSLRLSCAASAFTFTNYDMNWVRQAPGKGLEWVSTISGSGDITYYADFVKGRFTISRDNSKNTLNLQMNSLRADDTAVYYCAKDFARRGYNGYEEKFISMFGGVIADYGMDVWGQGTTVTVSS
VL: EIVLTQSPTTLSLSPGERVTLSCRASQSISSYLAWYQQKPGQAPRLLIYRASNRATGISARFSGSGSGTDFTLTISSLEPEDFAVYYCQQRSNWPLTFGGGTKVEIK
B5: C15C7 (antibody, V domains shown)
VH: QVQLVESGGGVVQPGRSLRLSCAASGFTFSSYGMHWVRQAPGKGLEWVAVISYDGSNKYYADSVKGRFTISRDNSKNTLYLQMNSLRAEDTAVYYCAKDAYYYDSSGYYPRDYYYYYYYMDVWGKGTTVTVSS
VL: not shown
B6: C81D9 (antibody, V domains shown)
VH: QVQLVESGGGVVQPGRSLRLSCAASGFTFSSYAMHWVRQAPGKGLEWVAVISYDGSNKYYADSVRGRFTISRDNSKNTLYLQMNSLRAEDTAVYYCARAWGGSYRGGLDYWGQGTLVTVSS
VL: DIQMTQSPSSLSASVGYRVTITCRASQSISSWLAWYQQKPGKAPKLLIYKASSLESGVPSRFSGSGSGTEFTLTISSLQPDDFATYYCQQYNSYWTFGQGTKVEIK
B7: C93D10 (antibody, V domains shown)
VH: QVQLVQSGAEVKKPGASVKVSCKASGYTFTSYYMHWVRQAPGQGLEWMGIINPSGGSTSYAQKFQGRVTMTRDTSTSTVYMELSSLRSEDTAVYYCARDPSSDYDFWSGWGNQYYYYGMDVWGQGTTVTVSS
VL: DIQLTQSPSFLSASVGDRVTITCRASQGISSYLAWYQQKPGKAPKLLIYAASTLQSGVPSRFSGSGSGTEFTLTISSLQPEDFATYYCQQLNSYPFTFGPGTKVDIK
B8: C15E7 (antibody, V domains shown)
VH: QVQLQQWGAGLLKPSETLSRTCAVYGGSFSGYYWTWIRQPPGMALEWIGDINHGGVTNYNPSLKSRVTISVDTSKNQFSLRLTSVTAADTAVYYCARRLLGDPRPASSSLSLRRVSYMDVWDKGTTVTVSS
VL: DIQMTQSPSSMPASVGDRVTITCRASQSISNYLNWYQQEPGRAPKLLIYGASSLQSGVPSRFGGSGSGTEFTLTITALQPEDSATYYCQQIHGAPPITFGQGTRLEIK
B9: G32A3 (antibody, V domains shown)
VH: QVQLVQSGAEVKRPGASVKVSCKASGYTFTSYGITWVRQAPGQGLEWMGWISAYNGNTNYAQKLQGRVTMTTDSSTSTAYMELRSLRSDDTAVYYCARTPNSVITMIVVVTQTLDYWGQGTLVTVSS
VL: QSALTQPASVSGSPGQSITISCTGTSSDVGGYNYVSWYQQHPGKAPKLMIYEVSNRPSGVSNRFSGSKSGNTASLTISGLQAEDEADYYCSSYTSSSTRVFGGGTKLTVL
B10: C83A4 (antibody, V domains shown)
VH: QVQLQESGPGLVKPSQTLSLTCTVSGGSISSGGYYWSWIRQHPGKGLEWIGYIYYSGSTYYNPSLKSRVTISVDTSKNQFSLKLTSVTAADTAVYYCASEPTFRQSSISWYHYGMDVWGQGTTVTVSS
VL: B9 VL with G31R, E52D, R99L, G103T, L107V
B11: C83B7 (antibody, V domains shown)
VH: QVQLVQSGAEVKKPGASVKVSCKASGYTFTSYYLHWVRQAPGQGLEWMGIINPSGGSTSYAQKFQGRVTMTRDTSTSTVYMELRSLRSEDTAVYYCARDSAPRDYDFWSGYYFGVNGKGSSMDVWGQGTTVTVSS
VL: QSALTQPPSASGSPGQSVTISCTGTSSDVGGYNYVSWYQQHPGKAPKLMIYEVSKRPSGVPDRFSGSKSGNTASLTVSGLQAEDEADYYCSSYAGSNNYVFGTGTKVTVL
B12: C163E6 (antibody, V domains shown)
VH: QVQLVESGGGVVQPGRSLRLSCAASGFTFNTYAVYWVRQAPGKGLEWVAVISYDGINKYYADSVKGRFTISRDNSKNTLYLQMNSLRPEDTAVYYCARVKSGSYKGCFDYWGQGTLVTVSS
VL: not shown
B13: C53F12 (antibody, V domains shown)
VH: QVQLVQSGAEVKKPGSSVKVSCKASGGTFSSYAISWVRQAPGQGLEWMGGIIPIFGTANYAQKFQGRVTITADESTSTAYMELSSLRSEDTAVYYCARMYYYVSGSYHYFDYWGQGTLVTVSS
VL: EIVLTQSPATLSLSPGERATLSCRASQSVSSYLAWYQQKPGQAPRLLIYDASNRATGIPARFSGSGSGTDFTLTISSLEPEDFAVYYCQQRSNWPPALTFGGGTKVEIK
B14: C7A2 (antibody, V domains shown)
VH: EVQLLESGGGLVQPGGSLRLSCAASGFIFSNYVVSWVRQAPGKGLEWVSGISVNGDTTFYADSVKGRFTISRDNSKNTLYLQMNSLRAEDTAVYYCAKVRGYCSGGRGCMDVWGQGTTVTVSS
VL: DIQLTQSPSSLSASVGDRVTITCQASQDIGNTLAWYQQKPGKAPNLLIYDASSLQSGVPSRFSGSVSGTDFTLTITSLQLEDFATYYCQQFNTYPALTFGGGTKVEIK
B15: C81A10 (antibody, V domains shown)
VH: QVQLVQSGAEVKKPGSSVKVSCKASGGTFRSYAISWVRQAPGQGLEGMGGIIPIFGTTNYAQKFQGRVTITADESTSTAYMELSSLRSEDTAVYYCARSEWGDGYNQYYFDQWGQGALVTVSS
VL: DIQMTQSPSSLSAFVGDRVTITCRASQSISRYLNWYQQKPGKAPKVLIYAASSLQSGVPSRFSGSGSGTDFTLTISSLQPEDFATYYCQQSYSTLTFGGGTKVEIK
B16: C107A1 (antibody, V domains shown)
VH: QVQLVESGGGVVQPGRSLRLSCAASGFTFSSYGMHWVRQAPGKGLEWVAVISYDGSNKYYADSVKGRFTISRDNSKNTLYLQMNSLRAEDTAMYYCAKDGSGSYSWFDPWGQGTLVTVSS
VL: EIVMTQSPATLSVSPGERATLSCRASQSVSSNLAWYQQKPGQAPRLLIYGASTRATGIPARFGGSGSGTEFTLTISSLQSEDFAVYYCQQYNNGFTFGPGTKVDIK
B17: C41N6 (antibody, V domains shown)
VH: QVQLVESGGGVVQPGGSLRLSCAASGFTFSSYGMHWVRQAPGKGLEWVAFIRYDGSNNYYADSVKGRFTISRHNSKNTLYLQMNSLRAEDTAVYYCAKVTITIFGVVIYGMDVWGQGTTVTVSS
VL: not shown
B18: C81E2 (antibody, V domains shown)
VH: not shown
VL: DIQMTQSPSSLSASVGDRVTITCRASQGISNYLAWYQQKPGKVPKLLIYAASTLQSGVPSRFSGSGSGTDFTLTISSLQPEDVATYYCQKYNSASPLTFGGGTKVEIK
B19: G32M4 (antibody, V domains shown)
VH: QVQLVESGGGVVQPGRSLRLSCAASGFTFRSYAMHWVRQAPGKGLEWVAVISYDGSNKYYADSVKGRFTISRDNSKNTLYLQMNSLRAEDTAVYYCAKSYSGSYLAAFDIWGQGTMVTVSS
VL: EIVLTQSPGTLSLSPGERATLSCRASQIFSSSYLAWYQQKPGQAPRLLIYGASSRATGIPDRFSGSGSGTDFTLTISRLEPEDFAVYYCQQYGSSITFGQGTRLEIK
B20: C30A5 (antibody, V domains shown)
VH: B19 VH with R30S, S31T, M83L, Y100G, S103H, L105F, A107P, I110Y, M116L
VL: not shown
B21: C12D2 (antibody, V domains shown)
VH: EVQLVESGGGLVQPGGSLRLSCAASGFTFSSYWMSWVRQAPGKGLEWVANIKQDGSEKYYVDSVKGRFIISRDNAKNSLYLQMNSLRAEDTAVYYCARDQRRFLEWLSYYYYMDVWGKGTTVTVSS
VL: not shown
B22: C53E12 (antibody, V domains shown)
VH: QVQLVESGGGVVQPGRSLRLSCAASGFTFSSYGMHWVRQAPGKGLEWVAVISYDGSNKYYVDSVKGRFTISRDNSKNTLYLQMNSLRAEDTAVYYCAKGTEIVVVPADYFDYWGQGTLVTVSS
VL: EIVLTQSPATLSLSPGERATLSCRASQSVSSYLAWYQQKPGQAPRLVIYDASNRATGIPARFSGSGSGTDFTLTISSLEPEDFAVYYCQQRSNWPGFTFGPGTKVDIK
B23: C15C9 (antibody, V domains shown)
VH: QVQLQQWGTGLLKPSETLSLTCAVYGGSFSGYYWTWIRQPPGKGLEWIGEINHSGTTTYNPSLKSRVTISVEKSENQFSLKLNSVTAADTAVYYCARGSRCSSASCLFYYFYYIDVWGKGTTVTVSS
VL: not shown
B24: G32Q6 (antibody, V domains shown)
VH: EVQLLESGGGLVQPGGSLRLSCAASGFTFSNYAMNWVRQAPGKGLEWVSGISGNGVNTFYADSVKGRFTISRDNSRNTLYLQMNSLRAEDTAVYYCAKAIQTYSNYVLGADYWGQGTLVTVSS
VL: QSALTQPRSVSGSPGQSVTISCTGTNSDVGNYNFVSWYQQHPGRAPKLMIYDVSKRPSGVPDRFSGSKSDNTASLTISGLQAEDQADYYCCSYATSYTFRVVFGGGTKLTVL
B25: C163E11 (antibody, V domains shown)
VH: QVQLVESGGGVVQPGRSLRLSCAASGFTFSIYAIHWVRQAPGKGLEWVAVVSYDGSNKYYADSVRGRFTISRDNSKNTLYLQMNSLRADDTAVYYCARDSAGGYSYLFDYWGQGTLVTVSS
VL: not shown

target: SARS-CoV-2 S ectodomain trimer, prefusion-stabilized, 2P variant (Wrapp et al., 2020) (SARS-CoV-2, Wuhan-Hu-1, UniProt P0DTC2, stabilised)

Row | Binder | binding result
1 | B1 | binds
2 | B2 | binds
3 | B3 | binds
4 | B4 | binds
5 | B5 | binds
6 | B6 | binds
7 | B7 | binds
8 | B8 | binds
9 | B9 | binds
10 | B10 | binds
11 | B11 | binds
12 | B12 | binds
13 | B13 | binds
14 | B14 | binds
15 | B15 | binds
16 | B16 | binds
17 | B17 | binds
18 | B18 | binds
19 | B19 | binds
20 | B20 | binds
21 | B21 | binds
22 | B22 | binds
23 | B23 | binds
24 | B24 | binds
25 | B25 | binds
